In experiment [1] the target is human CD81, cellular receptor on the cells infected with HCVcc (human) (UniProt P60033). As to the kind of experiment: cell-based or functional assay.
Experiment [2] deals with T1, Human CD81-LEL (residues 112-202), protein-A tag cleaved by PreScission Protease (human, UniProt P60033 112-202).
T1 construct: range 112-202
T1 sequence: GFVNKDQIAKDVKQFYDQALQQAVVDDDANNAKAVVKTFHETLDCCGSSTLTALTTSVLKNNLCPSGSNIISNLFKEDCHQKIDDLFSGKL
As to the kind of experiment: ELISA, CD81-LEL coated, detection with 2A12 and anti-mouse-HRP. For orientation: In an ELISA, binding on a coated surface is turned into a signal by an enzyme label.

The target of experiment [3] is T1, Human CD81-LEL (residues 112-202), …. As to the kind of experiment: SAXS envelope of the complex.

Chain of human CD81, cellular receptor on the cells infected with HCVcc (human) (P60033 whole entry, the tested form may be a part): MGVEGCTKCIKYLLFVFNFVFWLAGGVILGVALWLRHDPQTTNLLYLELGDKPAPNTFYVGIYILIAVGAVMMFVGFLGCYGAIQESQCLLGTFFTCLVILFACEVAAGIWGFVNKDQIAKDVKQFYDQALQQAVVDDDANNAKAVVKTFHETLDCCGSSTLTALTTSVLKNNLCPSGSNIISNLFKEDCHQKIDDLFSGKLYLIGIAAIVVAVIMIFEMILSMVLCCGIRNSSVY

In experiment [1], “purified eE2 (J6 genotype 2a E2 ectodomain aa 384-664, released from the Fc tag by thrombin) (from UniProt P26660 385-664)” came in with a 50% blocking efficiency, HCVcc focus forming units of 25 to 150 µg/mL.
Still for that read-out and setting: the result for “purified eE2-C656S (J6 E2 ectodomain aa 384-664 with C656S, released from the Fc tag by thrombin) (from UniProt P26660 385-664)” reads 25 to 150 µg/mL.

B1: full-length E2 ectodomain eE2 (residues 384-656, genotype J6), produced with a C-terminal protein-A tag and released by PreScission Protease (other)
chain: RTHTVGGSAAQTTGRLTSLFDMGPRQKIQLVNTNGSWHINRTALNCNDSLHTGFIASLFYTHSFNSSGCPERMSACRSIEAFRVGWGALQYEDNVTNPEDMRPYCWHYPPRQCGVVSAKTVCGPVYCFTPSPVVVGTTDRLGAPTYTWGENETDVFLLNSTRPPLGSWFGCTWMNSSGYTKTCGAPPCRTRADFNASTDLLCPTDCFRKHPDTTYLKCGSGPWLTPRCLIDYPYRLWHYPCTVNYTIFKIRMYVGGVEHRLTAACNFTRGDRC
modifications: N-linked glycans from GnTI- HEK293T cells; whether deglycosylated in the ELISAs is not stated
notes: Monomeric; also called eE2 (384-656)
For the molecule B1, the binding result in experiment [2] is given as “binds”.

B2: eE2(ΔHVR1) (residues 413-656, genotype J6) (other)
chain: LVNTNGSWHINRTALNCNDSLHTGFIASLFYTHSFNSSGCPERMSACRSIEAFRVGWGALQYEDNVTNPEDMRPYCWHYPPRQCGVVSAKTVCGPVYCFTPSPVVVGTTDRLGAPTYTWGENETDVFLLNSTRPPLGSWFGCTWMNSSGYTKTCGAPPCRTRADFNASTDLLCPTDCFRKHPDTTYLKCGSGPWLTPRCLIDYPYRLWHYPCTVNYTIFKIRMYVGGVEHRLTAACNFTRGDRC
modifications: glycosylated (SAXS sample)
notes: also called eE2(DHVR1); eE2 (DHVR1)
For the molecule B2, the binding result in experiment [3] is given as “binds”.

Source of the values: US20150368668A1 (RUTGERS THE STATE UNIVERSITY OF NEW JERSEY, published 2015).
